From paper PMC3386970

Experiments:
Test in all cases: SPR; BIAcore 2000. Aaa, N-Aaa and C-Aaa amine-coupled at low density to a C1 chip (149, 96 and 72 pg/mm^2, nearly equimolar). Fg, Fn or Vn injected as analytes at 50 µl/min, 25°C. KD from the kinetics of the initial phases (binding biphasic at higher concentrations).
[1] = biological target: N-terminal LysM domain of Aaa (6 x His-N-Aaa) (Staphylococcus aureus 4074)
[2] = biological target: C-terminal CHAP domain of Aaa (6 x His-C-Aaa) (Staphylococcus aureus 4074)
[3] = biological target: autolysin/adhesin Aaa from Staphylococcus aureus (6 x His-Aaa) (Staphylococcus aureus) (UniProt Q2G0U9)

Chain of C-terminal CHAP domain of Aaa (6 x His-C-Aaa) (Staphylococcus aureus 4074) (P0C1U7 215-334 limits assumed): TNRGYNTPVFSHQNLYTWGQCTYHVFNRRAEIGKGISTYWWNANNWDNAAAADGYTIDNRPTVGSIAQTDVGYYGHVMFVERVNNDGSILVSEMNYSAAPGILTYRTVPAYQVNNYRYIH
Chain of N-terminal LysM domain of Aaa (6 x His-N-Aaa) (Staphylococcus aureus 4074) (P0C1U7 26-214 limits assumed): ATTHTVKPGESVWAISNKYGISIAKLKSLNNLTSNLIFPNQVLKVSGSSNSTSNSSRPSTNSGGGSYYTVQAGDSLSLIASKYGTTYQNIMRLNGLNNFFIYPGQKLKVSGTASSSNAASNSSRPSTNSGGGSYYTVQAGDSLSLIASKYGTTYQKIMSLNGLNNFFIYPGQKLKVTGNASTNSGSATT

Substance	Kd [1] [nM]	relative stoichiometry of binding (Aaa : N-Aaa : C-Aaa) [1]	Kd [2] [nM]	relative stoichiometry of binding (Aaa : N-Aaa : C-Aaa) [2]	Kd [3] [nM]	relative stoichiometry of binding (Aaa : N-Aaa : C-Aaa) [3]
vitronectin (natural protein)	18	1	20	1	18	2
fibrinogen (from UniProt P02671 36-866; P02675 45-491; P02679 27-453) (complex)	0.41	2	0.74	1	0.76	4
fibronectin (from UniProt P02751 32-2477) (natural protein)	5.1	1	6.8	1	6	2
